# Data published in US20250042956A1 (University of California, published 2025).
# T1: AT4G35510.1 TRBIP1 (Arabidopsis thaliana)
# T1 construct: Endogenous protein found by mass spectrometry
# T1 chain: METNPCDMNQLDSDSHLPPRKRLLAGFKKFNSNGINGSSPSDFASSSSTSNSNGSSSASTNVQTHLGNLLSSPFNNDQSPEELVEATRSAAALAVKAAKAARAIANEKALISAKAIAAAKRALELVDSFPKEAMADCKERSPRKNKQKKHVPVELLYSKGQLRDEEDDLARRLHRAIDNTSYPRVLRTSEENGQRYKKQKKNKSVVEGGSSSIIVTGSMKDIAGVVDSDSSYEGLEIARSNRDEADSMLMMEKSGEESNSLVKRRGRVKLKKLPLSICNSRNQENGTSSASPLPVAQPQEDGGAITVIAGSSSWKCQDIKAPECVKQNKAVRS
# T2: AT2G17540.2 TRBIP2 (Arabidopsis thaliana)
# T2 construct: Endogenous protein found by mass spectrometry
# T2 chain: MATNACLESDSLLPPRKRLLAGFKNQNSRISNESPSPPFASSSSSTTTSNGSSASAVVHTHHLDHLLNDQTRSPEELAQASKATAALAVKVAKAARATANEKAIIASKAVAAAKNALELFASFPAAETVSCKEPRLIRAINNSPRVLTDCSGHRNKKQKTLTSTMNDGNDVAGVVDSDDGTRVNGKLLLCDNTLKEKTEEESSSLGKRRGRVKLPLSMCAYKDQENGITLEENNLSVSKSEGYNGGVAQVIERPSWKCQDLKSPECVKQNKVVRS
# T3: PIAL2 (yeast two hybrid GAL4 fusion) (Arabidopsis thaliana, UniProt F4JYG0 1-760)
# T3 construct: cDNA cloned into Gateway Y2H vectors; not shown: GAL4-AD or GAL4-BD (pGADT7-GW / pGBKT7-GW)
# T3 sequence: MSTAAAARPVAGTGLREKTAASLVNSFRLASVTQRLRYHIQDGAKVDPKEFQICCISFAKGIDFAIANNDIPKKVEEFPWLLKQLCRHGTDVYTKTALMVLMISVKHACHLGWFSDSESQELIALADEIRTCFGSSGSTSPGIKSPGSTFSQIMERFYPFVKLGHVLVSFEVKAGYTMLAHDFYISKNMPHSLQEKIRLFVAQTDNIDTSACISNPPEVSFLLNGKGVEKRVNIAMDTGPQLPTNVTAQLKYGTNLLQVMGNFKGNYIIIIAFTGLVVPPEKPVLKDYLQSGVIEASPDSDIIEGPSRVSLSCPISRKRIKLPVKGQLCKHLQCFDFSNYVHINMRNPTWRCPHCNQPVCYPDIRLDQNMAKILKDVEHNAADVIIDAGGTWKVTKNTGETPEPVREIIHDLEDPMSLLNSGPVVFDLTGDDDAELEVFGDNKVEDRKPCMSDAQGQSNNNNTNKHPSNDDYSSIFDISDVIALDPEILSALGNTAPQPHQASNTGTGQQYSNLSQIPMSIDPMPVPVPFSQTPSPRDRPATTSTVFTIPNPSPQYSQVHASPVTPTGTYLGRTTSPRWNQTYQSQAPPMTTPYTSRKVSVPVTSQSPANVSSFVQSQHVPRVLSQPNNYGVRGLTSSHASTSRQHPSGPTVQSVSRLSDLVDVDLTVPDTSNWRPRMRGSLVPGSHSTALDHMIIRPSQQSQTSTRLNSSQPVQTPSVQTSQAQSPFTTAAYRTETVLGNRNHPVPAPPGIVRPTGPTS
# What was measured:
# AT4G35510.1 TRBIP1 [1] = target: T1, AT4G35510.1 TRBIP1; experiment: IP-MS rep 1
# Experimental: (§1) The method of IP-MS used in this Example has been described in a recent paper (see e.g., Xue, Nat. Comm., 2021). Ten grams of unopened floral buds from Col-0 wild type and FLAG-tag transgenic plants, including PHD1, MOM1, AIPP3, MOM2, MORC6, PIAL2, TRB1, TRB2, TRB3, JMJ14, HD2A, HD2B, and ELF7 were collected and ground into fine powder with liquid nitrogen. These samples were resuspended with 25 mL IP buffer and homogenized until lump-free by dounce homogenizer. The lysate was filtered through Miracloth and incubated with 250 μL anti-FLAG M2 magnetic beads (Sigma) at 4° C. for 2 hours. The magnetic beads were washed with IP buffer and eluted with TBS containing 250 μg/mL 3×FLAG peptides. The eluted proteins were precipitated with trichloroacetic acid (Sigma) and subject to MS analyses as described previously (see e.g., Xue, Nat. Comm., 2021).
# AT2G17540.2 TRBIP2 [2] = target: T2, AT2G17540.2 TRBIP2; experiment: IP-MS rep 1
# Experimental: as §1
# AT4G35510.1 TRBIP1 [3] = target: T1, AT4G35510.1 TRBIP1; experiment: IP-MS rep 2
# Experimental: as §1
# AT2G17540.2 TRBIP2 [4] = target: T2, AT2G17540.2 TRBIP2; experiment: IP-MS rep 2
# Experimental: as §1
# AT4G35510.1 TRBIP1 [5] = target: T1, AT4G35510.1 TRBIP1; experiment: X-link IP-MS
# AT2G17540.2 TRBIP2 [6] = target: T2, AT2G17540.2 TRBIP2; experiment: X-link IP-MS
# [7] = target: T3, PIAL2 (yeast two hybrid GAL4 fusion); experiment: yeast two hybrid
# Excerpt: The cDNA sequences of PIAL1, PIAL2, MOM2, MORC6, and MOM1 CMM2 domain (aa1660-aa1860, (see e.g., Han, Plant Cell Rep., 2016)) were first cloned into gateway entry vectors followed by LR reaction with pGBKT7-GW (Addgene 61703) and pGADT7-GW (Addgene 61702) destination vectors. Pairs of plasmid DNA for the desired protein interaction to be tested were co-transformed into the yeast strain AH109. Combinations of the empty pGBKT7-GW or pGADT7-GW vectors and the plasmids of desired proteins were used for transformation of yeast cells to test for self-activation. Transformed yeast cells were plated on synthetic dropout medium without Trp and Leu (SD-TL) and incubated for 2-3 days to allow for the growth of positive colonies carrying both plasmids. Three yeast colonies of each tested protein interaction pairs were picked and mixed in 150 μl 1×TE solution, and 3 μl of the 1×TE solution with the yeast cells were blotted on synthetic dropout medium without Trp, Leu, and His (SD-TLH) and with 5 mM 3-amino-1,2,4-triazole (3AT) to inhibit background growth. Growth of yeast on SD-TLH with 5 mM 3AT medium after 2-3 days of incubation indicates the interaction between the GAL4-AD fusion protein and the GAL4-BD fusion protein.
IP-MS count (AT4G35510.1 TRBIP1 [1]),IP-MS count (AT2G17540.2 TRBIP2 [2]),IP-MS count (AT4G35510.1 TRBIP1 [3]),IP-MS count (AT2G17540.2 TRBIP2 [4]),IP-MS count (AT4G35510.1 TRBIP1 [5]),IP-MS count (AT2G17540.2 TRBIP2 [6]),binding result [7],Binder
24,16,38,20,17,3,–,"FLAG-TRB3 (other, not shown: small tags and cut ends, FLAG-tagged TRB3 from its native promoter; tag position under the label FLAG-TRB3 not certain; also called TRB3-FLAG; TRB-FLAG) MGAPKLKWTPEEETALKAGVLKHGTGKWRTILSDPVYSTILKSRSNVDLKDKWRNISVTALWGSRKKAKLALKRTPLSGSRQDDNATAITIVSLANGDVGGQQIDAPSPPAGSCEPPRPSTSVDKIILEAITSLKRPFGPDGKSILMYIEENFKMQPDMKRLVTSRLKYLTNVGTLVKKKHKYRISQNYMAEGEGQRSPQLLLEGNKENTPKPEENGVKNLTKSQVGGEVMIMGMTEKEAAAAAARAVAEAEFAMAEAEEAAREADKAEAEAEAAHIFAKAAMKAVKYRMHSQTR"
–,–,–,–,–,–,binds,"MOM1 CMM2 domain (yeast two hybrid GAL4 fusion) (other, Arabidopsis thaliana, UniProt Q9M658 1660-1860, looked up, range 1660-1860; also called MOM1 CMM2 domain (aa1660-aa1860); not shown: GAL4-AD or GAL4-BD (pGADT7-GW / pGBKT7-GW)) TSVAEPHISGSDACEMEISEPGPQVERSTFANLFHEGGVEHSAGVTALVPSLLNNGTEQIAVQPVPQIPFPVFNDPFLHELEKLRRESENSKKTFEEKKSILKAELERKMAEVQAEFRRKFHEVEAEHNTRTTKIEKDKNLVIMNKLLANAFLSKCTDKKVSPSGAPRGKIQQLAQRAAQVSALRNYIAPQQLQASSFPAP"
–,–,–,–,–,–,binds,"MORC6 (yeast two hybrid GAL4 fusion) (other, Arabidopsis thaliana, UniProt Q56Y74 1-663, looked up, cDNA cloned into Gateway Y2H vectors; not shown: GAL4-AD or GAL4-BD (pGADT7-GW / pGBKT7-GW)) MSHDRSVNVSHDAVIAKPERGTMLQSFSPRSHGSKGYSLPQDSEENRGSVGQSAGQSSTSVVDQVRSPADDAGVTSSSTICPAPVCRQFWKAGSYNDELSSKSQQPNGKNYLHVHPMFLHSNATSHKWAFGAVAELLDNAVDEIQNGATFVIVDKTTNPRDGATALLIQDDGGGMDPQAMRHCMGFGFSDKKSDSAIGRYGNGFKTSTMRLGADVIVFSRHSKNQTLTQSIGLLSYTYLTRTGHDRIVVPILDYEFNASAGEFKTLQDREHFISSLSILLEWSPFSTEAELLQQFDDVGPHGTKVIIYNMWLNSDAKLELDFDSVAEDILIEGSIKKTGSKIVNDHIASRFSYSLRVYLSILYLRIPETFKIILRGKVVEHHNVADDLMHPQYILYKPQAAGSEEALVVTTIGFLKEAPKVNLHGFCVYHKNRLIMPFWQVINYSSSRGRGVVGVLEANFVEPTHNKQDFEKTVLLQKLENRLKEMTVEYWSCHCVLIGYQVNKKPRLQIPQKVQPAGRQALSPPPGFQAVFPQGNTTSLPRVSTQPVLLEKRKEHPDSVASAALKRKVGNDDFTVPGHIRVEQFIHGSASQSQDIETVKLMEENKKLRAKCLDRKVRSQNLEVKAMNLRSELENYKSEYERLMVELQALDLVKDEHRRNVNT"
